Experimental data published in patent US20160200799A1.
Like-named read-outs stand apart in the source and are kept apart here.

How the values were obtained:
Assay in all cases: cell-based or functional assay
[1] = molecular target: Influenza virus A/Suita/1/2009pdm (H1N1 2009 pandemic) (Influenza A virus A/Suita/1/2009pdm (H1N1pdm))
[2] = molecular target: Influenza virus A/Indonesia/5/2005/PR8-IBCDC-RG2 (H5N1) (Influenza A virus A/Indonesia/5/2005/PR8-IBCDC-RG2 (H5N1))
[3] = molecular target: Influenza virus A/Brisbane/59/2007 (H1N1) (Influenza A virus A/Brisbane/59/2007 (H1N1))
[4] = molecular target: Influenza virus A/Okuda/1957 (H2N2) (Influenza A virus A/Okuda/1957 (H2N2))
[5] = molecular target: Influenza virus A/Panama/2007/1999 (H3N2) (Influenza A virus A/Panama/2007/1999 (H3N2))
[6] = molecular target: Influenza virus A/Suita/1/2009pdm (H1N1 2009 pandemic) (Influenza A virus A/Suita/1/2009pdm (H1N1pdm)); remark: listed apart in the source
[7] = molecular target: Influenza virus A/Indonesia/5/2005/PR8-IBCDC-RG2 (H5N1) (Influenza A virus A/Indonesia/5/2005/PR8-IBCDC-RG2 (H5N1)); remark: listed apart in the source
[8] = molecular target: Influenza virus A/Brisbane/59/2007 (H1N1) (Influenza A virus A/Brisbane/59/2007 (H1N1)); remark: listed apart in the source
[9] = molecular target: Influenza virus A/Okuda/1957 (H2N2) (Influenza A virus A/Okuda/1957 (H2N2)); remark: listed apart in the source
[10] = molecular target: Influenza virus A/Panama/2007/1999 (H3N2) (Influenza A virus A/Panama/2007/1999 (H3N2)); remark: listed apart in the source

Molecule: F045-092 completely humanized IgG antibody (control anti-HA antibody)
- Infection inhibition rate (%) [1]: 0%
- Infection inhibition rate (%) at 0.002 µg/mL [1]: 0%
- Infection inhibition rate (%) at 0.006 µg/mL [1]: 0%
- Infection inhibition rate (%) at 0.024 µg/mL [1]: 4.2%
- Infection inhibition rate (%) at 0.391 µg/mL [1]: 4.2%
- Infection inhibition rate (%) at 1.6 µg/mL [1]: 0%
- Infection inhibition rate (%) at 6.3 µg/mL [1]: 6%
- Infection inhibition rate (%) at 25.0 µg/mL [1]: 0%
- Infection inhibition rate (%) at 100.0 µg/mL [1]: 16.1%
- Infection inhibition rate (%) at 200.0 µg/mL [1]: 15.1%
- Infection inhibition rate (%) at 0.024 µg/mL [2]: 0%
- Infection inhibition rate (%) at 0.391 µg/mL [2]: 0%
- Infection inhibition rate (%) at 0.98 µg/mL [2]: 0%
- Infection inhibition rate (%) at 1.6 µg/mL [2]: 0%
- Infection inhibition rate (%) at 6.3 µg/mL [2]: 0%
- Infection inhibition rate (%) at 25.0 µg/mL [2]: 14.3%
- Infection inhibition rate (%) at 100.0 µg/mL [2]: 28.2%
- Infection inhibition rate (%) at 200.0 µg/mL [2]: 38.6%
- Infection inhibition rate (%) [3]: 0%
- Infection inhibition rate (%) at 0.002 µg/mL [3]: 0%
- Infection inhibition rate (%) at 0.006 µg/mL [3]: 0%
- Infection inhibition rate (%) at 0.024 µg/mL [3]: 0%
- Infection inhibition rate (%) at 0.391 µg/mL [3]: 0%
- Infection inhibition rate (%) at 1.6 µg/mL [3]: 0%
- Infection inhibition rate (%) at 6.3 µg/mL [3]: 5.3%
- Infection inhibition rate (%) at 25.0 µg/mL [3]: 24.4%
- Infection inhibition rate (%) at 100.0 µg/mL [3]: 30.2%
- Infection inhibition rate (%) at 200.0 µg/mL [3]: 58.4%
- Infection inhibition rate (%) [4]: 0%
- Infection inhibition rate (%) at 0.024 µg/mL [4]: 0%
- Infection inhibition rate (%) at 0.391 µg/mL [4]: 0%
- Infection inhibition rate (%) at 1.6 µg/mL [4]: 0%
- Infection inhibition rate (%) at 6.3 µg/mL [4]: 0%
- Infection inhibition rate (%) at 25.0 µg/mL [4]: 0%
- Infection inhibition rate (%) at 100.0 µg/mL [4]: 15.8%
- Infection inhibition rate (%) at 200.0 µg/mL [4]: 39.4%
- Infection inhibition rate (%) [5]: 0%
- Infection inhibition rate (%) at 0.391 µg/mL [5]: 1.9%
- Infection inhibition rate (%) at 1.6 µg/mL [5]: 31.4%
- Infection inhibition rate (%) at 6.3 µg/mL [5]: 42.9%
- Infection inhibition rate (%) at 25.0 µg/mL [5]: 96.7%
- Infection inhibition rate (%) at 100.0 µg/mL [5]: 99%
- Infection inhibition rate (%) at 200.0 µg/mL [5]: 99.5%

B1: F081-007 completely humanized IgG antibody (antibody, V domains shown)
VH: QVQLQQSGAEVKKPGSSVKVSCKASGGIFRKNAISWVRQAPGQGLEWMGGISAIFGTANYAQKFQGRVTITADESSNTVYMDLSRLRSEDTAIYYCASHPTYHFDKSGYRFDSWGQGTLVTVSS
VL: QSVLTQPPSVSAAPGQKVTISCSGSSSNIGNNYVSWYQQLPGTAPKLLIYDNNKRPSGIPDRFSGSKSGTSATLGITGLQTGDEADYYCGTWDSSLSAGVFGGGTKLTVLG
- Infection inhibition rate (%) [6]: 49.8%
- Infection inhibition rate (%) at 0.002 µg/mL [6]: 29.3%
- Infection inhibition rate (%) at 0.006 µg/mL [6]: 32%
- Infection inhibition rate (%) at 0.024 µg/mL [6]: 45.3%
- Infection inhibition rate (%) at 0.391 µg/mL [6]: 83.1%
- Infection inhibition rate (%) at 1.6 µg/mL [6]: 96.8%
- Infection inhibition rate (%) at 6.3 µg/mL [6]: 100%
- Infection inhibition rate (%) at 25.0 µg/mL [6]: 100%
- Infection inhibition rate (%) at 100.0 µg/mL [6]: 100%
- Infection inhibition rate (%) at 200.0 µg/mL [6]: 100%
- IC50 of neutralization [7]: 0.36 µg/mL
- Infection inhibition rate (%) [7]: 10.2%
- Infection inhibition rate (%) at 0.024 µg/mL [7]: 7%
- Infection inhibition rate (%) at 0.391 µg/mL [7]: 55.3%
- Infection inhibition rate (%) at 1.6 µg/mL [7]: 85.1%
- Infection inhibition rate (%) at 6.3 µg/mL [7]: 100%
- Infection inhibition rate (%) at 25.0 µg/mL [7]: 100%
- Infection inhibition rate (%) at 100.0 µg/mL [7]: 100%
- Infection inhibition rate (%) at 200.0 µg/mL [7]: 100%
- Infection inhibition rate (%) [8]: 36.3%
- Infection inhibition rate (%) at 0.002 µg/mL [8]: 0%
- Infection inhibition rate (%) at 0.006 µg/mL [8]: 9.9%
- Infection inhibition rate (%) at 0.024 µg/mL [8]: 27.9%
- Infection inhibition rate (%) at 0.391 µg/mL [8]: 59.2%
- Infection inhibition rate (%) at 1.6 µg/mL [8]: 82.4%
- Infection inhibition rate (%) at 6.3 µg/mL [8]: 90.1%
- Infection inhibition rate (%) at 25.0 µg/mL [8]: 100%
- Infection inhibition rate (%) at 100.0 µg/mL [8]: 100%
- Infection inhibition rate (%) at 200.0 µg/mL [8]: 100%
- Infection inhibition rate (%) at 0.024 µg/mL [9]: 0%
- Infection inhibition rate (%) at 0.391 µg/mL [9]: 37.2%
- Infection inhibition rate (%) at 0.98 µg/mL [9]: 16.5%
- Infection inhibition rate (%) at 1.6 µg/mL [9]: 79%
- Infection inhibition rate (%) at 6.3 µg/mL [9]: 92.6%
- Infection inhibition rate (%) at 25.0 µg/mL [9]: 98.2%
- Infection inhibition rate (%) at 100.0 µg/mL [9]: 98.9%
- Infection inhibition rate (%) at 200.0 µg/mL [9]: 98.9%
- Infection inhibition rate (%) [10]: 0%
- Infection inhibition rate (%) at 0.391 µg/mL [10]: 0%
- Infection inhibition rate (%) at 1.6 µg/mL [10]: 0%
- Infection inhibition rate (%) at 6.3 µg/mL [10]: 0%
- Infection inhibition rate (%) at 25.0 µg/mL [10]: 0%
- Infection inhibition rate (%) at 100.0 µg/mL [10]: 0%
- Infection inhibition rate (%) at 200.0 µg/mL [10]: 0%

B2: F083-336 completely humanized IgG antibody (antibody, V domains shown)
VH: QVQLQQSGAEVKQPGSSVKVSCKASGGIFRSNAISWVRQAPGQGLEWMGGIVALFGTANYAQKFQGRVTITADESTSTVYMELSSLRSEDTARYYCARNSGYHISGFYLDYWGQGTLVTVSS
VL: EIVLTQSPSSLSASVGDRVTITCRASQGISNYLAWYQQRPGKVPKLLIYTASTLLSGVPSRFSGGGSGTDYTLTISSLQPEDVATYYCQEYKSVPLTFGPGTKVEIK
- Infection inhibition rate (%) [6]: 30.7%
- Infection inhibition rate (%) at 0.002 µg/mL [6]: 0%
- Infection inhibition rate (%) at 0.006 µg/mL [6]: 13.8%
- Infection inhibition rate (%) at 0.024 µg/mL [6]: 30.7%
- Infection inhibition rate (%) at 0.391 µg/mL [6]: 62.1%
- Infection inhibition rate (%) at 1.6 µg/mL [6]: 93.2%
- Infection inhibition rate (%) at 6.3 µg/mL [6]: 100%
- Infection inhibition rate (%) at 25.0 µg/mL [6]: 100%
- Infection inhibition rate (%) at 100.0 µg/mL [6]: 100%
- Infection inhibition rate (%) at 200.0 µg/mL [6]: 100%
- Infection inhibition rate (%) [7]: 1%
- Infection inhibition rate (%) at 0.024 µg/mL [7]: 0%
- Infection inhibition rate (%) at 0.391 µg/mL [7]: 22.1%
- Infection inhibition rate (%) at 1.6 µg/mL [7]: 40.5%
- Infection inhibition rate (%) at 6.3 µg/mL [7]: 66.4%
- Infection inhibition rate (%) at 25.0 µg/mL [7]: 86.7%
- Infection inhibition rate (%) at 100.0 µg/mL [7]: 89.3%
- Infection inhibition rate (%) at 200.0 µg/mL [7]: 98.5%
- Infection inhibition rate (%) at 0.002 µg/mL [8]: 2.3%
- Infection inhibition rate (%) at 0.006 µg/mL [8]: 7.3%
- Infection inhibition rate (%) at 0.024 µg/mL [8]: 11.1%
- Infection inhibition rate (%) at 0.391 µg/mL [8]: 42.4%
- Infection inhibition rate (%) at 0.98 µg/mL [8]: 32.4%
- Infection inhibition rate (%) at 1.6 µg/mL [8]: 72.1%
- Infection inhibition rate (%) at 6.3 µg/mL [8]: 90.5%
- Infection inhibition rate (%) at 25.0 µg/mL [8]: 97.3%
- Infection inhibition rate (%) at 100.0 µg/mL [8]: 100%
- Infection inhibition rate (%) at 200.0 µg/mL [8]: 100%
- Infection inhibition rate (%) [9]: 2.5%
- Infection inhibition rate (%) at 0.024 µg/mL [9]: 0%
- Infection inhibition rate (%) at 0.391 µg/mL [9]: 19.9%
- Infection inhibition rate (%) at 1.6 µg/mL [9]: 39.8%
- Infection inhibition rate (%) at 6.3 µg/mL [9]: 81.5%
- Infection inhibition rate (%) at 25.0 µg/mL [9]: 86.7%
- Infection inhibition rate (%) at 100.0 µg/mL [9]: 85.9%
- Infection inhibition rate (%) at 200.0 µg/mL [9]: 98.9%
- Infection inhibition rate (%) [10]: 2.9%
- Infection inhibition rate (%) at 0.391 µg/mL [10]: 4.8%
- Infection inhibition rate (%) at 1.6 µg/mL [10]: 0%
- Infection inhibition rate (%) at 6.3 µg/mL [10]: 0%
- Infection inhibition rate (%) at 25.0 µg/mL [10]: 0%
- Infection inhibition rate (%) at 100.0 µg/mL [10]: 0%
- Infection inhibition rate (%) at 200.0 µg/mL [10]: 0%
